Data published in patent US20210253643A1, “HYDROPHOBIC BIOMOLECULE STABILIZING SCAFFOLD PEPTIDES AND METHODS OF MAKING AND USING SAME” (The University of British Columbia, priority 2018, published 2021).
No end group written: not given here.

Key:
membrane proteins = assay: on-gel reconstitution, competitor equimolar NSPr-FAM; 0 no, 100 full competition
MalFGK2, P02916 [1] = assay: BN-PAGE of MalFGK2-NSPr after 3 hr of incubation at 30 °C
MalFGK2, P02916 [2] = assay: BN-PAGE of MalFGK2-NSPr, time 0 hr of incubation at 30 °C
MalFGK2, P02916 [3] = assay: SDS-PAGE densitometry of purified peptidisc against an NSPr standard curve
[4] = target: photosynthetic bacterial reaction center (BRC) from Rhodobacter sphaeroides (Rhodobacter sphaeroides), P0C0Y9; assay: as above
MalFGK2, P02916 [5] = assay: BN-PAGE of MalFGK2-NSPr after 2 hr of incubation at 30 °C
MalFGK2, P02916 [6] = assay: in-gel reconstitution, CN-PAGE titration of NSPr, Boltzmann fit
SecYEG complex, P0AGA2 = target: T1, SecYEG complex, P0AGA2; assay: as above
T1 chain 1: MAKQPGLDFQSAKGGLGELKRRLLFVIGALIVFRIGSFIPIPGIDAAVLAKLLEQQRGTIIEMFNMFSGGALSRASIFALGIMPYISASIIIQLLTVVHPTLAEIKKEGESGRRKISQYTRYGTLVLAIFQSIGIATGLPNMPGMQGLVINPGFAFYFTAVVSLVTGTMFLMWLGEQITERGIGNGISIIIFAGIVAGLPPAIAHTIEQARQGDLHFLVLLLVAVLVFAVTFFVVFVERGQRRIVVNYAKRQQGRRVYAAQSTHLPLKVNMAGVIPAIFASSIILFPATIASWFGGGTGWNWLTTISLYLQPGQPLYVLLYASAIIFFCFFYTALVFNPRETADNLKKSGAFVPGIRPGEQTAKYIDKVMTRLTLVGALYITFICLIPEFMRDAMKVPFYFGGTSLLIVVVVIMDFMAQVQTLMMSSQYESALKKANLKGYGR
T1 chain 2: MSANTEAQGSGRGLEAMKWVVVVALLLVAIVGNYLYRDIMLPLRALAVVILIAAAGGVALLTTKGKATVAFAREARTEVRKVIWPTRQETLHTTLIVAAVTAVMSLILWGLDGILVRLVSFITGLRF
T1 chain 3: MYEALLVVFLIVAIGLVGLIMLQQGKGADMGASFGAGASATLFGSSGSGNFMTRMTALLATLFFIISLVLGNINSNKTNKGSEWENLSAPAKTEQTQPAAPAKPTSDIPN

FhuA (E. coli), P06971 [7] = target: T2, FhuA (E. coli), P06971; assay: as above
T2 chain: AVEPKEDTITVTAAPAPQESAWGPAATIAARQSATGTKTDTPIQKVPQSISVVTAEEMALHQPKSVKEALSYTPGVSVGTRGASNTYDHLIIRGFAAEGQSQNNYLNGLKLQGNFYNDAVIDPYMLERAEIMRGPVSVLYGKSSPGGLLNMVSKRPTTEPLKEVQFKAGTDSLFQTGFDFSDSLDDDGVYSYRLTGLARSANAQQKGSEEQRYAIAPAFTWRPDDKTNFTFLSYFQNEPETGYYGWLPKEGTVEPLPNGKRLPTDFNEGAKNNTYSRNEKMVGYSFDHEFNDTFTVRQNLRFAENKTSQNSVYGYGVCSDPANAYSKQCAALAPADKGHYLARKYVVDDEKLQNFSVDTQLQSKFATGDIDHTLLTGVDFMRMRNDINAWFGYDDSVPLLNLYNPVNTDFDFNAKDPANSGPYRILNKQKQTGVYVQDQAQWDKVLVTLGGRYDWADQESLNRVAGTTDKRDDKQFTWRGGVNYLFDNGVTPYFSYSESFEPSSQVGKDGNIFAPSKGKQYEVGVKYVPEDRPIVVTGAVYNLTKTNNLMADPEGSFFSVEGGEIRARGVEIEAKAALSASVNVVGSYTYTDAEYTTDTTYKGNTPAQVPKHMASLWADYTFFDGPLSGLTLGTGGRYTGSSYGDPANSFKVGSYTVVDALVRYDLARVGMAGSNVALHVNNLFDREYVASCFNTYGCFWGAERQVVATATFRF

[8] = target: T3, trimeric OmpF porin (E. coli), P02931; assay: as above
T3 chain: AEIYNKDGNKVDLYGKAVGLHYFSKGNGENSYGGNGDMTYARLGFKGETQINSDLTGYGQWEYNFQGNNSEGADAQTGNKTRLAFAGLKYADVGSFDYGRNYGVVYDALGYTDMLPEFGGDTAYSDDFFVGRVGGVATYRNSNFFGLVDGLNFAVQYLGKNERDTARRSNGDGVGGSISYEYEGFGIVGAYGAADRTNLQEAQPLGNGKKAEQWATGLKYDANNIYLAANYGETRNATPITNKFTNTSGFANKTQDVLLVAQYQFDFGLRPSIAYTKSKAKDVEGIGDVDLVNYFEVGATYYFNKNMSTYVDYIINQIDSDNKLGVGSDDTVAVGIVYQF

FhuA (E. coli), P06971 [9] = target: T2, FhuA (E. coli), P06971; assay: density of the FhuA band of FIG. 19B plotted against log(mol NSPr/mol FhuA); half-maximal reconstitution ratio RR50
MalFGK2, P02916 [10] = assay: BN-PAGE of MalFGK2-NSPr after 1 hr of incubation at 30 °C
FhuA (E. coli), P06971 [11] = target: T2, FhuA (E. coli), P06971; assay: western blot with streptavidin-Alexa 680 of peptidisc made with NSPrbio, against a standard curve

MalFGK2, P02916, sequence (P02916 whole entry, chain 1 of 3): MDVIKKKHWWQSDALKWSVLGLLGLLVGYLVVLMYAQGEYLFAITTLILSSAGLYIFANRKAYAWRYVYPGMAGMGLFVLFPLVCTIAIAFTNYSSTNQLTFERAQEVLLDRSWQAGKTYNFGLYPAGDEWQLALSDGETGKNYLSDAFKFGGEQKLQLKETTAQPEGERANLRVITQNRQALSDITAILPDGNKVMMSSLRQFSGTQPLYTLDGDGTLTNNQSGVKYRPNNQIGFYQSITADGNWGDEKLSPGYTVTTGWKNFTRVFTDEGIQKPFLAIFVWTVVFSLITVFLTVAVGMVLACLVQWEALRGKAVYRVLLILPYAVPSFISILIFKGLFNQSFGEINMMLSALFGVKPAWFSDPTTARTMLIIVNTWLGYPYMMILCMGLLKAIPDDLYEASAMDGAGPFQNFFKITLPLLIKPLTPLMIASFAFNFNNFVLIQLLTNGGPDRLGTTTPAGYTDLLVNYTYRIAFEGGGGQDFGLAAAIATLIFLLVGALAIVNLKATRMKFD
MalFGK2, P02916, sequence (P68183 whole entry, chain 2 of 3, further chain): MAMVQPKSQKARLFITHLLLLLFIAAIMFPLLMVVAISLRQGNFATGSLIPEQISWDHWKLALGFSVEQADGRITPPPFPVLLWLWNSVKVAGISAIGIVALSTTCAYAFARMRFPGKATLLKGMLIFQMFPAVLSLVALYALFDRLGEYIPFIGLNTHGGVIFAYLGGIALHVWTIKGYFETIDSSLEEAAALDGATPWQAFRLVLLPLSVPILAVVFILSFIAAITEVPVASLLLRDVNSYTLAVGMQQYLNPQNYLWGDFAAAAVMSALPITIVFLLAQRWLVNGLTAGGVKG
MalFGK2, P02916, sequence (P68187 whole entry, chain 3 of 3, further chain): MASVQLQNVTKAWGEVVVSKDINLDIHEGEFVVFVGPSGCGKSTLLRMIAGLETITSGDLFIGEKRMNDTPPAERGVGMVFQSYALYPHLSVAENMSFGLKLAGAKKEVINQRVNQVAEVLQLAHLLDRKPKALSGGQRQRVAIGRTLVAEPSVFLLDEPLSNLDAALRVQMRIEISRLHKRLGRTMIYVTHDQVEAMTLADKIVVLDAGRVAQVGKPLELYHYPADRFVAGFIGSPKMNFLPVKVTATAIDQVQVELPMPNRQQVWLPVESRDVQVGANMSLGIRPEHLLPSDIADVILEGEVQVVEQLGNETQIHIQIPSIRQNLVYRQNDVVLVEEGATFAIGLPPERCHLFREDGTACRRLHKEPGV

B1: Ac-NSP-NH2 (peptide)
peptide: DWLKAFYDKVAEKLKEAAPDWFKAFYDKVAEKFKEAF
modifications: not fully specified (N-terminus, C-terminus)
Q: For B1, which Competition peptide (% NSPr-FAM) (membrane proteins) is on record?
A: 10%

B2: NSPr (peptide)
peptide: FAEKFKEAVKDYFAKFWDPAAEKLKEAVKDYFAKLWD
modifications: not checked
Q: Which results are given for B2?
A: (%) of the MalFGK2 Peptidisc band (MalFGK2, P02916 [1]): 84%; (%) of the MalFGK2 Peptidisc band (MalFGK2, P02916 [2]): 100%; Measured NSPr stoichiometry (NSPr/disc) (MalFGK2, P02916 [3]): 10 NSPr/disc; Measured NSPr stoichiometry (NSPr/disc) [4]: 9 NSPr/disc; (%) of the MalFGK2 Peptidisc band (MalFGK2, P02916 [5]): 86%; RR50 (half-maximal reconstitution molar ratio) (mol NSPr/mol protein) (MalFGK2, P02916 [6]): 20; RR50 (half-maximal reconstitution molar ratio) (mol NSPr/mol protein) (SecYEG complex, P0AGA2): 20; RR50 (half-maximal reconstitution molar ratio) (mol NSPr/mol protein) (FhuA (E. coli), P06971 [7]): 20; RR50 (half-maximal reconstitution molar ratio) (mol NSPr/mol protein) [8]: 20; EC50 (read off the curve) (mol NSPr/mol FhuA) (FhuA (E. coli), P06971 [9]): 20; (%) of the MalFGK2 Peptidisc band (MalFGK2, P02916 [10]): 89%

B3: NSPr-biotin (peptide)
peptide: B2 peptide
modifications: not fully specified (N-terminus)
Q: B3 was tested. Which Measured NSPr stoichiometry (NSPr/disc) (FhuA (E. coli), P06971 [11]) did it give?
A: 10 NSPr/disc
